# Results published in patent publication US20190225675A1 (TUFTS UNIVERSITY, published 2019).
# B1: VNA-TcdB (toxin B-binding heterodimer, 5D+E3) (other)
# chain: QGVQSQLQLVESGGGLVQPGGSLRLSCEASGFTLDYYGIGWFRQPPGKEREAVSYISASARTILYADSVKGRFTISRDNAKNAVYLQMNSLKREDTAVYYCARRRFSASSVNRWLADDYDVWGRGTQVAVSSEPKTPKPQGGGGSGGGGSGGGGSQGVQSQVQLVESGGGLVQTGGSLRLSCASSGSIAGFETVTWSRQAPGKSLQWVASMTKTNNEIYSDSVKGRFIISRDNAKNTVYLQMNSLKPEDTGVYFCKGPELRGQGIQVTVSSEPKTPKPQ
# How the values were obtained:
# [1] = target: Clostridium difficile toxin B (TcdB) (Clostridium difficile, UniProt P18177 2-2366)
# [2] = target: T1, Clostridium difficile toxin A (TcdA) (Clostridium difficile, UniProt P16154 1-2710); assay: ELISA on plates coated with TcdA, HRP-conjugated detection antibody, A450
# T1 construct: mature
# T1 sequence (P16154 whole entry): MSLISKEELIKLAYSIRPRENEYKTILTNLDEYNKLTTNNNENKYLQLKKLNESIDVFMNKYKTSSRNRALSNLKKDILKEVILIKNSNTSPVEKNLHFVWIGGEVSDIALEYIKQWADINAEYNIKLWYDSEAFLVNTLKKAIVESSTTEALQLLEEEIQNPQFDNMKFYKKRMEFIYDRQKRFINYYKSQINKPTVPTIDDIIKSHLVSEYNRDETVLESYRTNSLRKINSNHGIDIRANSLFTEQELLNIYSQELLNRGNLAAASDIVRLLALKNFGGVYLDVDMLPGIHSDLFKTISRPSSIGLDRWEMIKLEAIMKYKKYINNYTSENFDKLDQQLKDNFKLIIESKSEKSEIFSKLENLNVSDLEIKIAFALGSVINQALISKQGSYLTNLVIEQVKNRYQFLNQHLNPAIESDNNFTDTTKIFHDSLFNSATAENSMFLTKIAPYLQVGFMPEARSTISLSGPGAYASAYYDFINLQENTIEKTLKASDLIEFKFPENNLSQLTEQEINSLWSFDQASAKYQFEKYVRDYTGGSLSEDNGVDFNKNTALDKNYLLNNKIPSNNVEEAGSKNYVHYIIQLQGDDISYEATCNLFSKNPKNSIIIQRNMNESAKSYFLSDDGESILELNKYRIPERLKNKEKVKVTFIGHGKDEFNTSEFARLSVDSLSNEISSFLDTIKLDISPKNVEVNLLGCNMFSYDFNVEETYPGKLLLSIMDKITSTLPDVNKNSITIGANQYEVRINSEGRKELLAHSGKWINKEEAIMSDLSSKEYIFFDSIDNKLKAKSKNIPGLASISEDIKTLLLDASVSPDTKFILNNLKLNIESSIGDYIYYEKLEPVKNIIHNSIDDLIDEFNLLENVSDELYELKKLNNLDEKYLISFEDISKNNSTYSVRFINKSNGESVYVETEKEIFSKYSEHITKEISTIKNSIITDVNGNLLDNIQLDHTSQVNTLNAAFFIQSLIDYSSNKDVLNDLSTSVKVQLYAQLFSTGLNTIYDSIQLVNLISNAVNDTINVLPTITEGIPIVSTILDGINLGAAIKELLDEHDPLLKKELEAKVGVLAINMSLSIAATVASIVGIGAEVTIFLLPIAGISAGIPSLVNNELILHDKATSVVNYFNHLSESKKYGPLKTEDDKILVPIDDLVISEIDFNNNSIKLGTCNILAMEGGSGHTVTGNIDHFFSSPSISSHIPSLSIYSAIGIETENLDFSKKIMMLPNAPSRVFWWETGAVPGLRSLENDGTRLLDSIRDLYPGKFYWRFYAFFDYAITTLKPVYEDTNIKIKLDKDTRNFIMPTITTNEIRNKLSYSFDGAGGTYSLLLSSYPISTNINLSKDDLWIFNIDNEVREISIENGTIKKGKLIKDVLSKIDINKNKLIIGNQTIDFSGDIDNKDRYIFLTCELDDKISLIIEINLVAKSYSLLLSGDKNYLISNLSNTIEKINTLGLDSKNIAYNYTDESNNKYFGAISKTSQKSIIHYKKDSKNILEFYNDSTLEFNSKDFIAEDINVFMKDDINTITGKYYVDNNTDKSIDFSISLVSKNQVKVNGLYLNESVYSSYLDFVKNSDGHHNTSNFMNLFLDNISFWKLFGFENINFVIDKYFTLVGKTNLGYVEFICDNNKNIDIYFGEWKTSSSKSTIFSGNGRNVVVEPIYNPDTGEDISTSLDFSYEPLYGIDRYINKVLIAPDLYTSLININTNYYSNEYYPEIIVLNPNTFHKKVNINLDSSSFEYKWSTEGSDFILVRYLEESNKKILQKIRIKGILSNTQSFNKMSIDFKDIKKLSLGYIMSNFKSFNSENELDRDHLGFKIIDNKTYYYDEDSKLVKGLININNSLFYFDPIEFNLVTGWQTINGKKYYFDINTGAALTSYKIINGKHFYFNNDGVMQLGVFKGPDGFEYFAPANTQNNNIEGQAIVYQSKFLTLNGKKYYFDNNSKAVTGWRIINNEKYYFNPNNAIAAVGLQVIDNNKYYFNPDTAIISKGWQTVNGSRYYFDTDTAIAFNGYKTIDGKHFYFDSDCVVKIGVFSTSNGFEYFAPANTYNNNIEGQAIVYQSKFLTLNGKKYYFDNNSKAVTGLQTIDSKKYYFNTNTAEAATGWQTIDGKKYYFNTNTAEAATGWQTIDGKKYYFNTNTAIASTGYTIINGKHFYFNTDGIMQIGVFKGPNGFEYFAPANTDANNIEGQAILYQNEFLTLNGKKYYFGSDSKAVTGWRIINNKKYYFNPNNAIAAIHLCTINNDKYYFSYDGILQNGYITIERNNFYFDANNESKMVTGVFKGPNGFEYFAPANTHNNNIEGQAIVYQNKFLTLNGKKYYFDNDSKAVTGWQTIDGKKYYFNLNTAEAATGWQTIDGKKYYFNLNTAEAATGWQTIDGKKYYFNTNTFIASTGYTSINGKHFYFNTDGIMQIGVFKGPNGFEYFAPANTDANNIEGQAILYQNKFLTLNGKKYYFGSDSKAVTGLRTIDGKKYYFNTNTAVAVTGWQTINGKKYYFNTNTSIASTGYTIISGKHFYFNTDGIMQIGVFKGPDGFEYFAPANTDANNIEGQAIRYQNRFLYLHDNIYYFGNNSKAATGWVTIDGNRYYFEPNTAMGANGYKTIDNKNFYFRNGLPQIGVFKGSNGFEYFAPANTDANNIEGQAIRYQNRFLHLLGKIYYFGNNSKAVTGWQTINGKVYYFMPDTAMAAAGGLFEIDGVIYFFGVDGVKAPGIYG
# Clostridium difficile toxin B (TcdB), sequence (P18177 2-2366): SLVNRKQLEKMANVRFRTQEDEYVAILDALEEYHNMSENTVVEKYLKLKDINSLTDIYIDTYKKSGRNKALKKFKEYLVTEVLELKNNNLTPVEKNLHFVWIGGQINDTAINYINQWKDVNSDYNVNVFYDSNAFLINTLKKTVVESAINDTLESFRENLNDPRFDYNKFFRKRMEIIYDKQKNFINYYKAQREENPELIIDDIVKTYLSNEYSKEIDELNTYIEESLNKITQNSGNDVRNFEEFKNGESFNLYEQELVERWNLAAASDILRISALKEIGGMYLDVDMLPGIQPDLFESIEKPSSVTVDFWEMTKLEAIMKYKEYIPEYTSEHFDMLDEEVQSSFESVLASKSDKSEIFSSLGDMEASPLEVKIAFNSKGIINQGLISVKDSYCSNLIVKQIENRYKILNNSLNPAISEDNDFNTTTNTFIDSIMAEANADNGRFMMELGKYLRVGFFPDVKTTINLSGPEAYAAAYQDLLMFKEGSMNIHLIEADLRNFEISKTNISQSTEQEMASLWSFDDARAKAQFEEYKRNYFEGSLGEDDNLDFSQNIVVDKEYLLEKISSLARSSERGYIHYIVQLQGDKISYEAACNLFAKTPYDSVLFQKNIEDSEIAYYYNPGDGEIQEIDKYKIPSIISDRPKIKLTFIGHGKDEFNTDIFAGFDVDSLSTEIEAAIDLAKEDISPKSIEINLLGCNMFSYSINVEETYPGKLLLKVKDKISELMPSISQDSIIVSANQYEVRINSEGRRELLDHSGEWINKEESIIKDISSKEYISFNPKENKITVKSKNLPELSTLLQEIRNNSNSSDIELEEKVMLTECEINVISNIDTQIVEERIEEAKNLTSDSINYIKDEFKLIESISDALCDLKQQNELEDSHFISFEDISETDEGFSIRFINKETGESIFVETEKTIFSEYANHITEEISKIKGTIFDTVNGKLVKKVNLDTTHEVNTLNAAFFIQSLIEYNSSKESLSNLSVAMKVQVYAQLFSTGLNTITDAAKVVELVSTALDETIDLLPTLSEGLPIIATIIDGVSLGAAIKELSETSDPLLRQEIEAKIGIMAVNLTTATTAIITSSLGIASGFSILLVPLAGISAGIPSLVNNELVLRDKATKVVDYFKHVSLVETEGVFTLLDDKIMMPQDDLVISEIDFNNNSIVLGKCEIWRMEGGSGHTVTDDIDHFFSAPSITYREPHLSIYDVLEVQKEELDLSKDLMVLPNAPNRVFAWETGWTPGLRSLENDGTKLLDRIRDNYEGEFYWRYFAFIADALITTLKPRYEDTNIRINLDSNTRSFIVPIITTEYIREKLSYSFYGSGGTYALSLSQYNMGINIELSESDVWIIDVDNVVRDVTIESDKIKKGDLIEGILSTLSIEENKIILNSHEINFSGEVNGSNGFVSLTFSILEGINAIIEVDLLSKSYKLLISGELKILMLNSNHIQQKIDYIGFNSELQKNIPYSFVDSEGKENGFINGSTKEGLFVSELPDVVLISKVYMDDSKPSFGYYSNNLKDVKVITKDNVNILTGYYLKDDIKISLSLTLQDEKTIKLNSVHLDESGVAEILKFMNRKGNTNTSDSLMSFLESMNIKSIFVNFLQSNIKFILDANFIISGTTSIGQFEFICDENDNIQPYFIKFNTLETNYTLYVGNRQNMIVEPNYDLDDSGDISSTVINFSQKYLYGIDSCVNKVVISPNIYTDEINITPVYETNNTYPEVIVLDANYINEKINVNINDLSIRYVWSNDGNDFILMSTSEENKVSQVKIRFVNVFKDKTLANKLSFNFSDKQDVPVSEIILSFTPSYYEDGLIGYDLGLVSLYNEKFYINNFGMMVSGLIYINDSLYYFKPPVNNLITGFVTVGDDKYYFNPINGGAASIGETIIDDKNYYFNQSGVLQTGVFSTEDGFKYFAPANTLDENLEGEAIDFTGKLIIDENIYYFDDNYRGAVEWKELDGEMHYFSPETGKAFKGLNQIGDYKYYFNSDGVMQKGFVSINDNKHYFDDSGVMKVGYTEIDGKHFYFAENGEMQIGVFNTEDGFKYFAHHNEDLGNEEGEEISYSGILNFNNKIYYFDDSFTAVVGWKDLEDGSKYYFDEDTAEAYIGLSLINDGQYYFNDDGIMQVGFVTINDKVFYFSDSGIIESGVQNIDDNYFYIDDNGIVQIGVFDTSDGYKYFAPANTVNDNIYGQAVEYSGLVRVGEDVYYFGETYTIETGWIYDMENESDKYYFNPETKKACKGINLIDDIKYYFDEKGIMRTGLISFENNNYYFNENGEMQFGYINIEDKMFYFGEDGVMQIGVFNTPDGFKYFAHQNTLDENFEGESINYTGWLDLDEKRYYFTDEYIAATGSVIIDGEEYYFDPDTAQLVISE
binder,measurement,setting,value
B1,EC50 (read off the curve),[1],~0.3 nM
same,binding result,[2],no binding (tested: 125 nM)
